Source: the RNAGym collection of RNA variant scans (doi:10.1073/pnas.2313332121)

B1: TPR t1 (parent)
chain: GACCAAUCUGCCCUCAGAGCUCGAGAACAUCUUCGGAUGCAGAGGAGGCAGGCUUCGGUGGCGCGAUAGCGCCAACGUCCUCAACCUCCAAUGCAUCCCACCACAUGAUGAUGCCUGAAGAGCCUUGGUUUUUUG

Variants of: B1
Experiment: polymerase ribozyme fitness, log enrichment relative to wild type (log ratio); higher = more active; in vitro selection for triplet polymerase activity
Summary of the method: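 Each subunit of a heterodimeric triplet polymerase ribozyme was represented by a PCR-built, transcribed mutant library that underwent triplicate single-round in vitro selection with frozen incubation at −7 °C. Extended constructs were recovered by gel excision, streptavidin-bead capture and RT-PCR, and Illumina sequencing of input and output libraries kept genotypes with ≥10 input reads and ≥1 read per output. Fitness is the logarithm of genotype enrichment relative to wild-type enrichment, from inverse-variance-weighted replicate averages, with a logarithm base of 2.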

Variant | polymerase ribozyme fitness (log ratio)
C49U G51U | -5.95
C49A G60A G135C | -0.655
G48U C73U U109A G110U A119U | -4.88
A50G C89A | -1.48
C49U G52A C73G A121U | -1.14
G48A C70A C86G G107C G110U | -5.84
A50C C70A | -2.58
A50C G57U G113U | -4.25
A50C C53U C72U G127A U133A | -3.63
G48A C49U G61U U78A G122A U126A | -3.77
C49A C72U G77U C115A | -1.36
G48U U112A | 0.632
C49U U106A C114U | -4.43
C49U C94A | -2.8
A50G C73A U106G | -1.39
C49U A91C C123A | -1.62
C49U G69U U78C U81A C114G G117U G127U | -5.33
C49G G120U | 0.305
G48A G52A | -0.371
A50G G63U C101G G120C U130G | -3.55
G48U G60C C70U U78G | -5.9
G48U C64A C86G A111G G135A | -6.11
G48U G57A | -1.01
A50C A100C C104U G120C G127U | 0.167

Variant | polymerase ribozyme fitness (log ratio)
G48C C64U | -1.12
C49U C72U C94G | -1.72
G48C C72G U78G U92A C124G | -2.22
A50G G51A | -1.11
A50G G63U A66G U130A | -4.03
A50C G58C C98U C123G | 0.72
A50C U125A | -0.974
C49G G61C | -2.12
C49U G71C C94G | -2.87
A50G C56G A103C C115G | -5.53
G48A C70A | -2.36
G48A G117C | -3.17
A50G G57U C79A C115A | -1.84
G48U G60U G61A A83G U129G | -3.05
G48C G93A A105C | -4.64
G48C C123U | -0.702
G48C A83U A111C A118C | -0.0367
A50C G117U | -2.95
A50C G52C C56G G63A G77U | -6.51
C49U G61U C86A | -1.79
G48U A50U G60A C86G | -2.89
A50G G69U C86G | -0.754
G48A C64A | -6.92
G48A C64U | 0.0683

Variant | polymerase ribozyme fitness (log ratio)
G48U A50U A68G C89G U106A U116C C124U | -5.48
G48C C49A | -2.13
G48C C49G | -0.655
G48U C72G G122A | -2.3
G48C C62U C64U C97U A100U C123A | -2.01
G48C A50G C102A | -3.21
A50C A91G C124A U133A | 1.25
G48U U54G | -0.42
G48C A84G C85G C115A G127U | -4.98
C49A C94A A103C | -5.92
C49G U78G U112A | -0.0739
C49A C88G G120C | 0.68
G48U A111C | -0.214
A50C A84C | -1.1
C49U C73A C114U | -2.58
G48A U112C U133G | 0.699
C49U C62A | -2.25
G48U G57C U130C | 0.0456
G48C C56G C62U U78C C115U C124A | -2.1
C49U G60A C82U U106A G120C G135A | 0.366
A50C U116A U131A | -3.32
G48U U78C | -1.27
G48U C56G C72A C94A G110C | -5.78
G48C A74U | -0.843

Variant | polymerase ribozyme fitness (log ratio)
A50G G93C U109A G117C | -6.26
A50G A75U C80U U81A C114U U133C | -4.62
C49A A118G | -0.216
G48A U54A C62U C82U C85A C104A | -2.99
C49A C94U U116A | -3.07
C49U A103C U112C | -3.22
A50G C85G | -0.79
C49A G113C G120U | -4.69
C49A C53A C79A C85U A111C | -2.83
C49G G60A A75U G93U | -3.65
C49G G51U | -3.2
C49G A90C | -3.22
G48A C64U C89G C114U U126G | -6.43
C49U U55G | -0.735
C49U U59G C72U | -1.12
C49G A90U G117A | -3.8
C49A C115G | -1.85
C49U G61C G71A A95G G113U | -7.48
C49A U96G | -0.658
C49G G60C | -1.97
G48C G51C G57U | -2.77
C49U C72G C89U | -1.07
G48C U67C G71A A95G U106A | -8.09
C49U A50U G51A | -2.62

Variant | polymerase ribozyme fitness (log ratio)
G48A U133G | -1.38
G48A C76U C85G C89A U96C | -5.66
C49A U55C G61C C104U | -2.02
C49U A50U A95G U96A A111G | -7.1
C49A C72G C89G G113U | -5.04
C49U G57U C79A | -3.24
G48A G61C | -1.66
G48C G93U U96A A111G | -5.62
C49G C56G | -2.98
C49G C56U | -0.51
C49A C86G C101A A118U | -1.56
G48U C49A C115U U133C | -2.27
G48A A83U C102A | -2.24
G48U U92G | -3.54
C49U A121C | 1.39
G48C C82A A84C | -1.03
G48U C94U | -1.2
G48U C94G | -1.44
G48A C85A | -0.739
G48C C104A C124A | -0.812
C49A C86A U129G | -1.96
C49A A84C C99U | -3.55
G48U A90G U112A | -2.03
G48U G57U G63A U96G A100C C102G G120C | -6.73

Variant | polymerase ribozyme fitness (log ratio)
G48A G61U C64U A84U | -3.63
C49G U96A U112A | -0.269
G48A C72U U81C C102A A121C | -0.882
C49A G52A G57A U78A | -1.73
C49G U55C C98U | -2.01
C49G G51C A119U U133C | -3.18
C49U C70U | -1.33
G48C C53A C124U G128C | -3.02
A50C C62A U106A A111G C114U C123A | -5.42
C49U C53U G60A G122A U133G | -1.32
G48U C56A A105G A111G | -5.01
C49A A66G C73U | -1.61
C49U C85G U96G | -2.99
C49U G61U U81A C115G | -2.05
C49A C88A G113U A119U G128U | -6.41
C49G C82G A118U | -0.627
G48C G69U U130C | -0.222
C49U C62A U96C | -1.91
G48C U92A C104U | -3.44
C49G C70U U129A | -2.63
G48U C56A U92A | -4.35
G48C G128C | -2.75
G48U C56G C101U C114G | -4.75
C49A G71A C98G A100C | -7.02

Variant | polymerase ribozyme fitness (log ratio)
C49U G110A | -1.45
G48U A105C | -2.86
G48U A105U | -2.27
G48C G71C C123G | -0.00854
G48U A50U U78C A90U C123A | -2.26
C49U G128U | -2.9
A50G A66G C73U C86A C115G | -4.26
C49U G58C | -0.728
C49A G71A G77C | -1.63
A50C C70U A105U | -3.71
C49U G57U G61A G120A | -0.511
G48A U67C | -3.66
G48A G63A U116C G122A | -5.7
G48A C62U C115U | -3.7
C49A U55C | -1.24
G48A C56G | -0.92
C49U A74C | -0.435
A50C C89U | -1.06
G48A A100U | -1.19
G47U U55C C56A C73G | -4.04
G48U C53A C62U C82U U106A A108G | -1.03
G48C A83C A90C G110A | -3.46
G48U G57U C85A C114G U129A | -6.62
